Earlier results as cited in PMC2827930.

Biological target: RBPjκ (UniProt P31266)
Sequence of UniProt P31266 (P31266 53-474): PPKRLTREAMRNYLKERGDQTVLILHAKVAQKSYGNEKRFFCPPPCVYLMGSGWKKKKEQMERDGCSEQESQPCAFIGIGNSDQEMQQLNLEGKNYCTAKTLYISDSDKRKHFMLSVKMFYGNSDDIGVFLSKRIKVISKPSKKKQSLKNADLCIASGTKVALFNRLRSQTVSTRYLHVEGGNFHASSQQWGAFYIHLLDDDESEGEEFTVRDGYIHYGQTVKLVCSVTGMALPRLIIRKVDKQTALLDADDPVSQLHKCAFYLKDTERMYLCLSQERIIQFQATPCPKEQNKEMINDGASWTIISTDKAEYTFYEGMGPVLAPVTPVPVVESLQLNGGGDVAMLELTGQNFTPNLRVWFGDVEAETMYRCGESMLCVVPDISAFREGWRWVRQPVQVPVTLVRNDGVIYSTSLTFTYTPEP

Kd: 200 nM
Substance: Notch RAM (from UniProt P46531)
